Here are results for one molecule from patent publication US20250388666A1 (BRIGHAM AND WOMEN S HOSPITAL, published 2025).

One experiment deals with T1, human GST-CEACAM1 (human, UniProt P13688 35-141, limits assumed).
T1 construct: printed both as GST-CEACAM1 and CEACAM1-GST; also called human CEACAM1-GST protein; hCEACAM1-GST; not shown: GST tag
T1 sequence: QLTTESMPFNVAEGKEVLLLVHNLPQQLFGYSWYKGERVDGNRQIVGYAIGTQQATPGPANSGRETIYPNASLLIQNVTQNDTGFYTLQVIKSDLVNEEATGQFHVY
The experiment is described as follows: competition ELISA vs murine parent antibody. In short, it runs like this: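 Competition ELISA on plates coated overnight at 4° C with 1 μg/ml GST-CEACAM1, blocked with 2% BSA/PBS. Each antibody variant competed against the murine parental antibody for antigen binding, benchmarked against the chimeric VH0/Vκ0 antibody run on every plate.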

Experiment [1] addresses T2, CEACAM1-HIS (Sino Biologics Inc.) (Homo sapiens (Human), UniProt P13688 35-428).
T2 construct: bought; not shown: His tag
T2 sequence: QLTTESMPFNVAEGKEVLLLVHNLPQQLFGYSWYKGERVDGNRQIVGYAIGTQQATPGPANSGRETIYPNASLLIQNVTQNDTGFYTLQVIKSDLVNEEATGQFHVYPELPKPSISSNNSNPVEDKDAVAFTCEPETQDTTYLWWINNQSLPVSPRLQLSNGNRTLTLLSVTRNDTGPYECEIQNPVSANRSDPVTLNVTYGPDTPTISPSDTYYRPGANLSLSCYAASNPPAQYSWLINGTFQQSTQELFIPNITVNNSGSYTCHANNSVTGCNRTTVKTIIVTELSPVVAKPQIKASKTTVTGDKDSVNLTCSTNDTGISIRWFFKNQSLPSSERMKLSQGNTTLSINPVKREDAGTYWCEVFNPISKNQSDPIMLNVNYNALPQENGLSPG
The experiment is described as follows: SPR multi-cycle, IgG on Protein A. The procedure:
As an alternative approach to assess the binding of the antibody combinations and the control antibodies to CEACAM1, a kinetic analysis was performed on a Biacore T200 running Biacore T200 Evaluation Software V2.0.1. All experiments were run at 25° C. with HBS-P+ running buffer (pH 7.4).
For multi-cycle kinetic analysis purified antibody was immobilized at a protein concentration of 1 μg/mL in HBS-P+. At the start of each cycle, antibody was captured on Protein A to give an RU of ˜100 and the surface allowed to stabilize. Kinetic data was obtained at a flow rate of 35 μl/min to minimize any potential mass transfer effects. Multiple repeats of the blank (no CEACAM1) and a repeat of a single concentration of the analyte were programmed into the kinetic run in order to check the stability of both the surface and analyte over the kinetic cycles. For kinetic analysis, a 2-fold dilution series was selected from 100 to 1.5625 nM CEACAM1. The association phase of CEACAM1 was monitored initially for 180 seconds. In the subsequent experiment a longer association time (275 seconds) was used in order to better reach steady state. The dissociation phase was measured for 250 seconds. Regeneration of the Protein A surface was conducted using 2 injections of 10 mM glycine-HCL pH 1.5 at the end of each cycle.
The signal from the reference channel Fc1 was subtracted from that of Fc2, Fc3 and Fc4 to correct for differences in non-specific binding to a reference surface, a global Rmax parameter was used in the 1-to-1 binding model. The relative KD compared to the chimeric parental antibody was calculated by dividing the KD of the Composite Human Antibody™ variants by that of the chimeric parental antibody on the same chip.

For experiment [2], the target named is T2, CEACAM1-HIS (Sino Biologics Inc.). The experiment is described as follows: SPR single-cycle, IgG on Protein A. A digest of the protocol: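 Single-cycle kinetics at 25° C in HBS-P+ (pH 7.4), antibodies from HEK EBNA supernatants at 1 μg/mL captured on Protein A (~100 RU). CEACAM1 injected at 3.125–50 nM (2-fold, 5 points), 150 s association, 150 s dissociation. Reference-channel and blank-run subtraction applied.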

Several values for one entry are separate records, joined by “and”; a condition that tells them apart may be missing. Equal entries are not always repeated.

B1: chimeric parental antibody VH0/Vκ0 (antibody, IgG4, V domains shown)
VH: EVQLVESGGGFVKPGGSLKLSCAASGFSFSDYYLYWVRQTPEKRLEWVATISVGGGNTSYPDSVKGRFTISRDNAKNNLYLQMSSLKSEDTAMYYCTRGLYYGPAWFAYWGQGTLVTVSA
VL: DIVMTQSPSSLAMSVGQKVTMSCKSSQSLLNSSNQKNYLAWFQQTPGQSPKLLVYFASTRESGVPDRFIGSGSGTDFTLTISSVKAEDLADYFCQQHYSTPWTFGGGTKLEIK
notes: IgG4 (S241P), kappa; also called Chimera; chimeric antibody
Take B1: in the experiment with human GST-CEACAM1, the “average relative IC50 (normalized to chimeric antibody)” value came to 1 ratio. Besides, in experiment [1], the Kd is 27.2 nM and 22.3 nM and 19.5 nM; the koff is 0.0053 s⁻¹ and 0.00571 s⁻¹ and 0.00531 s⁻¹; the kon is 195000 M⁻¹ s⁻¹ and 256000 M⁻¹ s⁻¹ and 272000 M⁻¹ s⁻¹; the “relative KD to chimeric parental antibody” value turned out to be 1 ratio. In experiment [2], the Kd was 47.6 nM and 43.2 nM.
